Patent publication US20230357429A1 (JANUX THERAPEUTICS, published 2023)
Read-outs that look alike come from different tables or passages of the source. Where no end group is shown, it is not given here.

What was measured:
Assay in all cases: competition ELISA, peptide vs Fab binding to captured biotin-TROP2
TBD-21 (HC F108A) [1] = target: T1, TBD-21 (HC F108A)
T1 construct: Fab; also called HC F108A mutant

TBD-17 (HC S104A) [2] = target: T2, TBD-17 (HC S104A)
T2 construct: Fab; also called HC S104A mutant

TBD-11 (HC R98A) [3] = target: T3, TBD-11 (HC R98A)
T3 construct: Fab; also called HC R98A mutant

TBD-22 (HC D109A) [4] = target: T4, TBD-22 (HC D109A)
T4 construct: Fab; also called HC D109A mutant

TBD-1 wt [5] = target: T5, TBD-1 wt
T5 construct: Fab; the heavy chain entry is VH-CH1; also called wild-type anti-TROP2 Fab (hRS7); TROP2 Fab

TBD-6 (LC I93A) [6] = target: T6, TBD-6 (LC I93A)
T6 construct: Fab; also called LC I93A mutant

TBD-21 (HC F108A) [7] = target: T1, TBD-21 (HC F108A); remark: listed apart in the source
TBD-17 (HC S104A) [8] = target: T2, TBD-17 (HC S104A); remark: listed apart in the source
TBD-11 (HC R98A) [9] = target: T3, TBD-11 (HC R98A); remark: listed apart in the source
TBD-22 (HC D109A) [10] = target: T4, TBD-22 (HC D109A); remark: listed apart in the source
TBD-1 wt [11] = target: T5, TBD-1 wt; remark: listed apart in the source
TBD-6 (LC I93A) [12] = target: T6, TBD-6 (LC I93A); remark: listed apart in the source

Binder	IC50 (TBD-21 (HC F108A) [1]) [µM]	IC50 (TBD-17 (HC S104A) [2]) [nM]	IC50 (TBD-11 (HC R98A) [3]) [µM]	IC50 (TBD-22 (HC D109A) [4]) [nM]	IC50 (TBD-1 wt [5]) [nM]	IC50 (TBD-6 (LC I93A) [6]) [nM]	IC50 (TBD-21 (HC F108A) [7]) [µM]	IC50 (TBD-17 (HC S104A) [8]) [nM]	IC50 (TBD-11 (HC R98A) [9]) [µM]	IC50 (TBD-22 (HC D109A) [10]) [nM]	IC50 (TBD-1 wt [11]) [nM]	IC50 (TBD-6 (LC I93A) [12]) [nM]
EDFCYWYQWPICSD (cysteine pairing not given here; also: biotinylated, site not given here) [Peptide-35]	19.2	9400	21.9	870	4400	3200						
VDFCYLYNWPVCSK (cysteine pairing not given here; also: biotinylated, site not given here) [Peptide-37]	15.5	4080	16.6	370	6280	2600						
SYLVCVKNVYCWTA (cysteine pairing not given here; also: biotinylated, site not given here) [Peptide-29]							1.49	1110	9.17	33600	920	800
IDFCLLYDWPICGR (cysteine pairing not given here; also: biotinylated (site not given here)) [Peptide-17]							2.94	2070	1.95	70	430	760
VDFCSIYHWPVCYV (cysteine pairing not given here; also: biotinylated, site not given here) [Peptide-38]	3.54	2030	4.42	170	1630	520						
LDFCKIYDWPICHL (cysteine pairing not given here; also: biotinylated (site not given here)) [Peptide-14]							6.92	5720	3.42	190	2190	1540
MDFCQIYDWPICRL (cysteine pairing not given here; also: biotinylated (site not given here)) [Peptide-18]							7.56	7080	3.96	350	1270	6110
VDFCYLYSWPICTK (cysteine pairing not given here; also: biotinylated, site not given here) [Peptide-40]	10	7260	14.6	580	3630	2280						
VDFCGLYHWPICYQVD (cysteine pairing not given here; also: biotinylated, site not given here) [Peptide-39]	2.23	1690	1.64	140	460	670						
VDFCGLYHWPICYQVY (cysteine pairing not given here; also: biotinylated, site not given here) [Peptide-41]	1.5	1550	1.51	110	640	580						
VDFCALYHWPICYQ (cysteine pairing not given here; also: biotinylated, site not given here) [Peptide-43]	0.69	560	0.77	50	300	440						
IDFCAVYKWPVCQV (cysteine pairing not given here; also: biotinylated, site not given here) [Peptide-62]	3.01	1420	4.87	80	1470	550						
VDFCYQYGWPICSR (cysteine pairing not given here; also: biotinylated, site not given here) [Peptide-36]	19.9	14800	19.9	1720	5110	3800						
IDFCAMYHWPICDT (cysteine pairing not given here; also: biotinylated, site not given here) [Peptide-42]	0.94	590	1.21	60	300	220						
VDFCELYRWPICNS (cysteine pairing not given here; also: biotinylated (site not given here)) [Peptide-13]							3.2	2990	2.68	200	1010	970
VDFCKLYNWPVCQT (cysteine pairing not given here; also: biotinylated, site not given here) [Peptide-5]							7.16	1790	7.23	100	1590	1050
PDFCYMYGWPICDS (cysteine pairing not given here; also: biotinylated, site not given here) [Peptide-32]	13.2	9440	9.93	330	4940	3290						
IDFCMLYNWPICAG (cysteine pairing not given here; also: biotinylated, site not given here) [Peptide-3]	2	1480	2.72	120	430	530	2.64	1010	1.48	90	340	370
PDFCYMYNWPVCVT (cysteine pairing not given here; also: biotinylated, site not given here) [Peptide-33]	15.7	6010	18	330	5600	2160						
IDFCAIYQWPVCRS (cysteine pairing not given here; also: biotinylated (site not given here)) [Peptide-10]							2.9	1520	4.04	60	1220	620
VDFCKIYSWPVCHQ (cysteine pairing not given here; also: biotinylated (site not given here)) [Peptide-25]	6.73	3750	18	290	3030	1280	6.45	3040	8.1	140	2580	1030
PDFCAVYRWPICYQ (cysteine pairing not given here; also: biotinylated (site not given here)) [Peptide-12]							2.24	2230	0.85	70	460	1460
